We go through 14 molecules from patent US20260265383A1 (FUSION ANTIBODIES, published 2026).

Changes are numbered by the printed parent chain. Where only a bound is given, the exact number is not on record here.

Sequences and labels used below:
T1: RAMP2 Scr V1
T1 construct: it is not part of the secreted protein; Expressed in HEK cells
T1 chain: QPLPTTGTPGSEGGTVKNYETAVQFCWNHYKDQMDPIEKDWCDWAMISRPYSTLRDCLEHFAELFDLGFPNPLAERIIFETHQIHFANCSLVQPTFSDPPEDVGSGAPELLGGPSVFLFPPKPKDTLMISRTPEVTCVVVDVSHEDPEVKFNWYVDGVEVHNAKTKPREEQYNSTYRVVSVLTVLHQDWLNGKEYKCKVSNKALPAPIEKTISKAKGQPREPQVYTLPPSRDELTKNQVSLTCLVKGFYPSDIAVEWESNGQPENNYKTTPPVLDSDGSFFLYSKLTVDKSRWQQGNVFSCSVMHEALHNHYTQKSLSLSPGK

T2: RAMP2 IMM ECD V1
T2 construct: The entry includes a signal peptide whose residues cannot be read (drawing); The text says 'RAMP2 ECD'; also called RAMP2 ECD
T2 chain: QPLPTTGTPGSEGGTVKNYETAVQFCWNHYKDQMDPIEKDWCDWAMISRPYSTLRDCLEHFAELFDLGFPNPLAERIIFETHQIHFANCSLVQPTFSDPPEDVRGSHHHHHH

T3: RAMP3_Scr_V1
T3 construct: Expressed in HEK cells
T3 chain: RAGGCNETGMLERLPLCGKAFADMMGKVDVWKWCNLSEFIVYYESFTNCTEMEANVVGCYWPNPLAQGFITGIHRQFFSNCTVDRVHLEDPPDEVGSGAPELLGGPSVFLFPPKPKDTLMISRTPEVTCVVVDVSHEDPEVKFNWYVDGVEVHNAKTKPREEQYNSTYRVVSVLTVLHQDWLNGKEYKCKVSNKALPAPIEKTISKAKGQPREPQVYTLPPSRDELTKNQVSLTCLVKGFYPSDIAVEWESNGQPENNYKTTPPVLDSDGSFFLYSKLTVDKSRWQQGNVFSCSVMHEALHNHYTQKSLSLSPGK

B1: RAMP2-rIgG-k1-2A6 (antibody, V domains shown)
VH: QSVEESGGDLVKPGASLTLTCTASGFSFSSRYYMCWVRQAPGKGLEWIGCIFGGSSGNTHYASWAKGRFTIAKTSSTTVTLRMTSLTAADTATYSCVRSDAWGVNLWGPGTLVTVSS
VL: DVVMTQTPASVEAAVGGTVTIKCQASQSISNLLAWYQQKPGQPPKRLIYGASNLESGVPSRFKGSGSGTQFTLTISDLECADAATYYCQCSYDGSSPNAFGGGTEVVVE
notes: tested as recombinant rabbit IgG-kappa1; also called rlgG-k1-2A6; 2A6_#9
B2: RAMP2-rIgG-k1-2H3 (antibody, V domains shown)
VH: B1 VH with G49A, G57D, T59S, H60Y, S63R, A72S, S95F
VL: AAVMTQTPSPVSGVVGGTVTIKCQASQSIYGYFSWYQQKPGQPPKLLIYSASDLASGVPSRFKGSGSGTQFTLTISDLECADAATYYCQCSYDGSSPNAFGGGTEVVVK
notes: tested as recombinant rabbit IgG-kappa1; also called rlgG-k1-2H3; 2H3_#13
B3: RAMP2-rIgG-k1-2A8 (antibody, V domains shown)
VH: QSLEESGGGLVQPEGSLTLTCTASGFDLSRYYYIFWVRQAPGKGLEWIGCIYIGGNIITYYASWAKGRFTISKTSSPAVTLQMTSLTVADTATYFCARGTGYGGYGDVSLWGPGTLVTVSS
VL: APVLTHTAASVSEPVGGIVTINCQASQSIGSNLAWYQQKSGQPPKLLIYDASNLVSGVPSRFKGSRSGTEYTLTISDLECADAGTYYCQGYYYGSSTSYNLVSFGGGTEVVVK
notes: tested as recombinant rabbit IgG-kappa1; also called rlgG-k1-2A8; 2A8_#12
B4: RAMP2-rIgG-k1-1A10 (antibody, V domains shown)
VH: QSLEESGGGLVQPEGSLTLTCTASGFSFSSSYYMCWVRQAPGKGLEWIGSIYTLSGSTAYASWAKGRFTISKTSSTTVTLQMTSLTAADTAMYFCARDSDGWGVSFNLWGPGTLVTVSS
VL: AAVMTQTPSSLSAAVGGTVTIKCQASQSIRNQVSWYQQKPGQRPKLLIYRASTLESGVPSRFKGSGSGTDFTLTISDLECADAATYYCQCTYGSSSSNRYGNTFGGGTEVAVK
notes: tested as recombinant rabbit IgG-kappa1; also called rlgG-k1-1A10; 1A10_#7
B5: RAMP2-rIgG-k1-1H7 (antibody, V domains shown)
VH: QSLEESGGDLVKPEGSLTLTCTASGFSFSISYWICWVRQTPGKGLEWIGCIYGGSSGRPYYASWAKGRFTISKTSSTTVTLQMTSLTAADTAAYFCATTAYGGYGYGTWGPGTLVTVSS
VL: AAVLTQTPSSTSGPVGGTVTIKCQASQNIGSFLSWYQQKPGQPPKLLIYSASSLATGVPSRFSGSGSGTQFTLTISGVQCDDAATYYCLGFYAYRSDDGTAFGGGTEVVVK
notes: tested as recombinant rabbit IgG-kappa1; also called rlgG-k1-1H7; 1H7_#5
B6: RAMP2-rIgG-k1-1H6#4 (antibody, V domains shown)
VH: QEHLVESEGGLFKPTDTLTLTCTVSGFSLSSYGVSWVRQAPGKGLEWIGVIGATGSAYYANWAKSRSTITRNTNLNTVTLKVTSLTAADTATYFCARDDVLTGMDLWGPGTLVTVSS
VL: APVLTQTPASVEAAVGGTVTIKCQASQSINSWLSWYQQKPGQPPKLLIYQASKLASGVPSRFKGSGSGTEYTLTISDLKCADAATYYCQSYDYASNSGYVSNPFGGGTEVVVK
notes: tested as recombinant rabbit IgG-kappa1; also called rlgG-k1-1H6
B7: RAMP2-rIgG-k1-1A7#1 (antibody, V domains shown)
VH: B5 VH with L3V
VL: DGVMTQTPSSVSAAVGSTVTISCQASQSVFSNNYLSWYQQKPGQPPKLLIYTASSLASGVPSRFKGSGSGTQFTLTISDLECADAATYYCQCTYGKSGTDTYLNAFGGGTEVVVK
notes: tested as recombinant rabbit IgG-kappa1 made in CHOEBNALT85-1E9 cells (supernatant); also called rlgG-k1-1A7
B8: RAMP3-rIgG-k1-5H9 (antibody, V domains shown)
VH: QSLEESEGGLFKPTDTLTVTCIVSGLSLSRNAMSWVRQAPGSGLEWIGVIVTYGDTYYASWAKSRSTITRNTNENTVTLKMTSLTAADTATYFCIGGLDIWGPGTLVTVSS
VL: DVVMTQTPASVEAAVGGTVTIKCQATESIASWLAWYQQKAGQPPKLLIYEASKLESGVPSRFKGSGSGTEFTLTISDLECADAATYYCQSYLYSSSNTYGNSFGGGTEVVVK
notes: tested as recombinant rabbit IgG-kappa1; also called rlgG-k1-5H9; H9_#22
B9: RAMP3-rIgG-k1-4C10 (antibody, V domains shown)
VH: QEQLEESGGGLVKPTDTLTLTCTVSGFSLSTNSIFWVRQAPGNGLEWIGAISYAGGTAYASWAKSRSTITRNTNLNTVTLKMTSLTAADTATYFCGRGYVGYSRSKGDIWGPGTLVTVSS
VL: DGVMTQTPSSTSAAVGSTVTISCQSTQSIINNNWLAWYQQKPGHSPKLLIYDASTLASGVPSRFSGSGSGTQFTLTISDLECDDAATYYCAARYSGDIYTFGGGTEVVVR
notes: tested as recombinant rabbit IgG-kappa1; also called rlgG-k1-4C10; 4C10_#19
B10: RAMP3-rIgG-k1-6B8 (antibody, V domains shown)
VH: QSLEESGGGLVKPEGSLTLTCTASGFFFDRSYWICWVRQTPAKGLEWIACIVVSSGATYYASWAKGRLTLSKTSSTTVTLQMTSLTAADTAIYFCARDSSSTSGVEFNLWGPGTLVTVSS
VL: DVMMTQTPASVSEPVGGTVTIKCQASQNIGNNLAWYQQKPGQPPKLLIYLTSTLASGVPSRFKGSRSGTEFTLTISDLECADAATYFCQSYLYTTYAFGGGTEVVVK
notes: tested as recombinant rabbit IgG-kappa1; also called rlgG-k1-6B8; 6B8_#24
B11: RAMP3-rIgG-k1-6D8 (antibody, V domains shown)
VH: QSVEESGGDLVRPEGSLTLTCTASGFSLSSSYWICWVRQAPGKGLEWIACIVSNTGTTYYASWAKGRLTLSKTSSTTVTLQMTSLTAADTATYFCARDNNSKSGVEFNLWGPGTLVTVSS
VL: B10 VL with M3V, Q42H, T51A, F87Y
notes: tested as recombinant rabbit IgG-kappa1; also called rlgG-k1-6D8; 6D8_#28
B12: RAMP3-rIgG-k1-6C2 (antibody, V domains shown)
VH: QEQLEESEGGLFKPTDTLTLTCTVSGFSLSVYALTWVRQAPGNGLEWIGAIGNSGNTYYASWAKSRSTITRNTNENTVTLKMTSLTAADTATYFCARGYVRINVWGPGTLVTVSS
VL: DGVMTQTPSSVSAAVGGTVTISCQSSQSVYKNNYLSWFQQKPGQPPKLLIYEISKLESGVPDRFSGSGSGTQFTLTISGVQCDDAATYYCLGGYDDDSDTSFGGGTEVVVK
notes: tested as recombinant rabbit IgG-kappa1; also called rlgG-k1-6C2; 6C2_#25
B13: RAMP3-rIgG-k1-3A12 (antibody, V domains shown)
VH: QEQLEESEGGLFKPTDTLTLTCTVSGFSLSSYGVSWVRQAPGNGLEYIGFIGKTGSAYYASWAKSRSTITRNTTLNTVTLKMTSLTVADTATYFCARLGPGSIYYFDIWGPGTLVTVSS
VL: DPMLTQTPSSKSVPVGGTVTINCQSSESVYDNNWLAWFQQKPGQPPKRLIYSASTLASGVSSRFKGSGSGTQFTLTISDVQCDDAATYYCTGYKSRTTDEIAFGGGTEVVVK
notes: tested as recombinant rabbit IgG-kappa1; also called rlgG-k1-3A12; 3A12_#17
B14: RAMP3-rIgG-k1-3A5 (antibody, V domains shown)
VH: QSLEESGGGLVQPEGTLTLTCTVSGFSFSSNYWICWVRQAPGKGLEWIACIVTNSGTTYYTSWAKGRLTLSKTSSTTVTLQMTSLTAADTATYFCARDNNSVTGVEFNLWGPGTLVTVSS
VL: DVVMTQTPASVSAAVGATVTIKCQASETIGNNLAWYQQKPGQPPKVLMFLASTLASGVPSRFKGSRSGTEYTLTISGVQCDDAATYYCQSYLGTSYAFGGGTEVVVK
notes: tested as recombinant rabbit IgG-kappa1; also called rlgG-k1-3A5; 3A5_#15

One assay concerns the target T1, RAMP2 Scr V1. Nature of the assay: ELISA, 24-well supernatants on coated antigen. How it is done:
(§1) Amplified VH and VL were purified and altogether 20 cloning reactions per target were performed for cloning into rabbit IgG-κ1 encoding two-cassette expression plasmid by using Ligase Independent Cloning (LIC) method. Resulting antibody library pools were grown in E. coli strain DH5a. Plasmid DNA was purified and transfected into CHOEBNALT85-1E9 cells for transient production of antibodies in serum-free media for 48 hours in 24-well format. Cell culture supernatants were tested for RAMP2 Scr and RAMP2 ECD or RAMP3 Scr binding in ELISA (wells coated at 1 μg/ml in PBS).
As to B1, the binding result is given as “binds”.

On to B2, for which the binding result was “binds”.

As to B3, the binding result is “binds”.

Take B4: the binding result is given as “binds”.

With B5, the binding result was “binds”.

For B6, the binding result is reported as “binds”.

The next assay deals with T2, RAMP2 IMM ECD V1. The experiment in a line: direct ELISA, 6-well supernatants at 8-500 ng/ml on RAMP2 ECD coated at 1.0 µg/ml. The method, then: Immuno modules (Thermo Scientific™) were coated with RAMP2 ECD or RAMP3 Scr, 1.0 μg/ml in PBS, 100 μl/well, 20 h at 4° C. Supernatants of anti-RAMP2 and anti-RAMP3 rabbit IgG-κ1 antibody clones were transfered into wells at different concentrations (8-500 ng/ml; 100 μL/well, in PBS-0.05% Tween 20-1% BSA) and the plates were incubated for 60 min. on a shaker at room temperature (RT). Goat anti-rabbit-IgG HRP conjugate (Invitrogen; 1:20 000 in 1% BSA-PBS-0.05% Tween 20; 100 μL/well) was used as secondary reagent in direct ELISA (incubation time 60 min. at RT). To visualize, TMB substrate was added for 10 min. and stopped with 0.5 M H₂SO₄. Between every incubation step the wells were washed 4 times with PBS-Tween 20.
Take B1: the titer was < 8 ng/mL.

On to B2, for which the titer was < 8 ng/mL.

Turning to B3, the titer is < 8 ng/mL.

On to B4, for which the titer was < 8 ng/mL.

B7: the titer was < 8 ng/mL.

For B5, the titer is < 8 ng/mL.

With B6, the titer is < 8 ng/mL.

Another assay has as its target T3, RAMP3_Scr_V1. Nature of the assay: ELISA, single-clone supernatants on RAMP3 Scr. How it is done:
(§2) 8 specific ELISA positive pools against both targets were selected for single clone isolation. Single clones were selected in LB-Amp solid medium, colonies were grown in liquid medium o/n on shaker at 37° C. in 96-well microtiter plates (2-4 96-well plates per target), plasmid DNA was isolated and transfected into CHOEBNALT85-1E9 cells for antibody transient production. 48-72 hours after transfection supernatants were analyzed by ELISA on RAMP2 Scr or RAMP3 Scr respectively.
On the technique in general: An ELISA detects its analyte on a solid surface through an enzyme-linked reagent.
Regarding B8, the binding result is “binds”.

As to B9, the binding result is listed as “binds”.

On to B10, for which the binding result is listed as “binds”.

With B11, the binding result was “binds”.

Take B12: the binding result is “binds”.

In a further assay the target is T3, RAMP3_Scr_V1. Nature of the assay: ELISA, 24-well supernatants on coated RAMP3 Scr. How it is done: as §1
Turning to B13, the binding result was “binds”.

Consider B14, for which the binding result is listed as “binds”.

In another assay the target is T1, RAMP2 Scr V1. The experiment in a line: ELISA, single-clone supernatants on RAMP2 Scr. How it is done: as §2
As for B7, the binding result is listed as “binds”.
